Data on 1 molecule can be found in patent US20020159989A1 (BETH ISRAEL DEACONESS MEDICAL CENTER, published 2002).

In the test the target is T1, mouse TSP-1-TSR, expressed as a GAL4 DNA binding domain fusion (pAS2-1TSP1 type 1 construct) (mouse, UniProt P04386 1-147; P35441 377-549).
T1 construct: range 1-147;domain: TSR; also called TSR domain of TSP-1; bait
The test can be described thus: yeast two-hybrid counter-screen (HIS3 / lacZ reporters). Background: Counterscreens check selectivity or assay interference.

T1 sequence (P04386 other isoform, or with tags, fused parts or gaps limits assumed): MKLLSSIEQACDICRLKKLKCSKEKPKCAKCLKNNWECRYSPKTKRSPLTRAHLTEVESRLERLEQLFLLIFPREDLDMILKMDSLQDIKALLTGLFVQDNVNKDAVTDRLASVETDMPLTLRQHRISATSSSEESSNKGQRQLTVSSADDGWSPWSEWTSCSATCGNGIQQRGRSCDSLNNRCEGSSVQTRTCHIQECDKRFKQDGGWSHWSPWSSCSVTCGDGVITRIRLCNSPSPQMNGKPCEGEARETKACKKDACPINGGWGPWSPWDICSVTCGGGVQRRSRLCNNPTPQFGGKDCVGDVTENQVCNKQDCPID

B1: peptide of SEQ ID NO:1, expressed as a GAL4 activation domain fusion (prey clone from the pACT2 NIH3T3 cDNA library) (peptide)
chain: ANFNQSGNIADSSLSFTFTNSSNGPNLITTQTNSQALSQPIASSNVHDNFMNNEITASKIDDGNNSKPLSPGWTDQTAYNAFGITTGMFNTTTMDDVYNYLFDDEDTPPNPKKEAPWNCCPVSCCGNCCFFRALQSCPQG
notes: range 768-881; Yeast two-hybrid prey; also called peptide of the invention
For B1, the binding result is recorded as “no binding”.
